Values quoted from earlier work as cited in publication PMC8316261.

Molecular target: C5aR (Homo sapiens) (UniProt P21730)
UniProt P21730, sequence (P21730 whole entry): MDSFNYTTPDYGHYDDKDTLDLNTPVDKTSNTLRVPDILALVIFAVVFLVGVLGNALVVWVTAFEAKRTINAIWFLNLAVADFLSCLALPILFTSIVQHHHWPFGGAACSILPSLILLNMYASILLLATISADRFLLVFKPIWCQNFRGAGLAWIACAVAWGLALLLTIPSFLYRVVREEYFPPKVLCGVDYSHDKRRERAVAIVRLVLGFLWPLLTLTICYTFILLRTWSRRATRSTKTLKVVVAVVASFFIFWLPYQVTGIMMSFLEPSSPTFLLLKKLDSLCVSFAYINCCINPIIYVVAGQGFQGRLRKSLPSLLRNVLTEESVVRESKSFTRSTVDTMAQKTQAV

C5a C5a (from UniProt P01031)
Kd: 1 nM
